The results in this text go back to patent publication US20260250366A1 (RIN INSTITUTE, published 2026).

The target in one test is T1, AMU1114 (Homo sapiens (Human), UniProt P0DOX7 1-214).
T1 construct: Complex of a fusion heavy chain (Fab region linked to a prourokinase mutant) and an antibody light chain; F396 of the heavy chain corresponds to F157 of urokinase
As to the kind of experiment: assay not named in the sentence (ELISA of FIG. 5 presumably). As to the method: (§1) The concentration of each of the human and mouse urokinase receptors was adjusted with PBS to 1 μg/mL. The resultant solution was dispensed in the wells of a 96-well plate in a volume of 50 μL/well, allowed to stand still at room temperature for 90 minutes to immobilize the receptor. To the plate having the receptor immobilized thereon, TBS-T containing 1% BSA was dispensed in a volume of 300 μL/well. The plate was allowed to stand still at room temperature for 60 minutes to block the plate. To the plate blocked, the sample (mutant) adjusted in concentration to 1000 ng/mL, 111.1 ng/mL or 12.3 ng/mL was added in a volume of 50 μL/well and allowed to react at room temperature for 60 minutes. After washing with TBS-T, HRP-conjugated anti-human Kappa chain antibody (Bethyl) diluted with 1% BSA-containing TBS-T to 1/50,000 fold was dispensed in a volume of 50 μL/well and allowed to react at room temperature for 60 minutes. After washing, a TMB (3,3′,5,5′-tetramethylbenzidine) coloring reagent was allowed to react for 15 minutes. The reaction was terminated with 2N H₂SO₄ (30 μL/well). Absorbance at 450 nm was measured.

The target of test [1] is AMU1114 (Δ22-28, F157E) mutant (Homo sapiens (Human), UniProt P0DOX7 1-214). As to the kind of experiment: ELISA, receptor immobilized, detection with HRP anti-human Kappa chain antibody; compared with PBS. On the procedure: as §1
Sequence of AMU1114 (Δ22-28, F157E) mutant (P0DOX7 other isoform, or with tags, fused parts or gaps F157E F157E limits assumed, chain 2 of 2, other chains not shown): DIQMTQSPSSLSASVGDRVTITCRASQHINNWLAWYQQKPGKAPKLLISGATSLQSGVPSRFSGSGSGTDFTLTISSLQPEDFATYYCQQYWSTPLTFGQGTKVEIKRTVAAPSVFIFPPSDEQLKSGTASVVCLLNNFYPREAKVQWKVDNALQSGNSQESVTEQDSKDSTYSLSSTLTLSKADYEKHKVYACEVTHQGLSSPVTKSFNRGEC

T1 sequence (P0DOX7 other isoform, or with tags, fused parts or gaps limits assumed, chain 2 of 2, other chains not shown): as the sequence (P0DOX7 other isoform, or with tags, fused parts or gaps F157E F157E limits assumed, chain 2 of 2, other chains not shown) above

B1: mouse urokinase receptor (receptor)
chain: LQCMQCESNQSCLVEECALGQDLCRTTVLREWQDDRELEVVTRGCAHSEKTNRTMSYRMGSMIISLTETVCATNLCNRPRPGARGRAFPQGRYLECASCTSLDQSCERGREQSLQCRYPTEHCIEVVTLQSTERSLKDEDYTRGCGSLPGCPGTAGFHSNQTFHFLKCCNYTHCNGGPVLDLQSFPPNGFQCYSCEGNNTLGCSSEEASLINCRGPMNQCLVATGLDVLGNRSYTVRGCATASWCQGSHVADSFPTHLNVSVSCCHGSGCNSPTGHHHHHH
notes: Immobilized on the plate at 1 µg/mL
B1: the binding result (with AMU1114; in test [1]) was “no binding” throughout.
